Reference: patent US20240025997A1 (NGM BIOPHARMACEUTICALS, published 2024)

Assays:
soluble human ILT4-ECD [1] = biological target: T1, soluble human ILT4-ECD (human, UniProt Q8N423 22-460); assay: Biacore competition: antibody titrated against 20 nM ILT4-ECD, mixture injected over biotinylated HLA-A*1101 on a NeutrAvidin chip
T1 construct: also called LILRB2 extracellular domain
Experimental: (§1) As part of the characterization process, the ability of exemplary antibodies to inhibit or block the interaction of ILT2 or ILT4 with their natural ligands was evaluated in competition experiments using a Biacore system. As described herein, the natural ligands of ILT2 and ILT4 include, but are not limited to, HLA class I molecules, including HLA-A, HLA-B, HLA-C, HLA-E, and HLA-G. Biotinylated HLA-A*1101 was captured in high amounts on a NeutrAvidin chip surface. Antigen-antibody complexes were prepared with (i) ILT2-ECD and anti-ILT2 antibody 27F9, anti-ILT4 antibody 48A5, or anti-ILT2/ILT4 antibody Hz73D1.v1 and (ii) ILT4-ECD and anti-ILT2 antibody 27F9, anti-ILT4 antibody 48A5, or anti-ILT2/ILT4 antibody Hz73D1.v1. The antibody concentration of each antibody was titrated from 0.09-100 nM and the concentration of human ILT2-ECD or ILT4-ECD was kept constant at 20 nM. The complexes were mixed in a 96-well microplate and each was injected onto the HLA-A-coated chip surface. The measured signal (response unit, RU) was plotted against the antibody concentration.

soluble human ILT2-ECD [2] = biological target: T2, soluble human ILT2-ECD (human, UniProt Q8NHL6 24-461); assay: SPR (Biacore), antibody captured on Protein A chip, soluble ILT-ECD injected (1.6-200 nM), 25 C
T2 construct: also called LILRB1 extracellular domain
T2 sequence (Q8NHL6 24-461): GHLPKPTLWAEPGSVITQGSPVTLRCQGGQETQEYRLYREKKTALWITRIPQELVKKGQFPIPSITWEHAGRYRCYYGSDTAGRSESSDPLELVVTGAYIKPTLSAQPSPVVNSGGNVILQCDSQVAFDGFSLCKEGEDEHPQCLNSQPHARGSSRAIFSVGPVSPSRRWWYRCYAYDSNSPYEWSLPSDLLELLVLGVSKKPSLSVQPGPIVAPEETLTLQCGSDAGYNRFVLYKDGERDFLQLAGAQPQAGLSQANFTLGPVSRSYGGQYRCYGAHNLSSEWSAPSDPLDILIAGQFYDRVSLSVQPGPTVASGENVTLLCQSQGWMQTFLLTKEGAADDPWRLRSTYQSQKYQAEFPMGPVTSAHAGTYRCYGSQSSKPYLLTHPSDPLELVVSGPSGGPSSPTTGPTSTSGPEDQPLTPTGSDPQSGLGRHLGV
Experimental: (§2) The binding affinities of anti-ILT2 and anti-ILT4 antibodies were measured using a Biacore system (GE Healthcare LifeSciences). Equilibrium dissociation constant (KD) measurements were carried out with purified antibodies to evaluate their binding to human ILT2, human ILT4, and rhesus ILT2. Briefly, purified anti-ILT2 antibody 27F9, anti-ILT4 antibodies 47C8 and 48A5, and anti-ILT2/ILT4 antibodies 47H6, 51A1, 64A12, 73C4, and 73D1 were captured on a Sensor Chip Protein A (GE HealthCare). The surface of the Biacore Sensor Chip Protein A consists of a carboxymethylated dextran matrix with a recombinant Protein A variant covalently attached. Soluble human ILT2-ECD, human ILT4-ECD, or rhesus ILT2-ECD were injected at a flow rate of 30 μL/min at 25° C. The ILT2 or ILT4 proteins were used at concentrations ranging from 1.6-200 nM in PBS-P buffer with 2 fold dilutions. Kinetic data were collected over time and fit using the simultaneous global fit equation to yield affinity constants (KD values) for each antibody.

human ILT2 on cells [3] = biological target: T3, human ILT2 on cells (human, UniProt Q8NHL6 24-650); assay: cell-based or functional assay
T3 sequence (Q8NHL6 24-650): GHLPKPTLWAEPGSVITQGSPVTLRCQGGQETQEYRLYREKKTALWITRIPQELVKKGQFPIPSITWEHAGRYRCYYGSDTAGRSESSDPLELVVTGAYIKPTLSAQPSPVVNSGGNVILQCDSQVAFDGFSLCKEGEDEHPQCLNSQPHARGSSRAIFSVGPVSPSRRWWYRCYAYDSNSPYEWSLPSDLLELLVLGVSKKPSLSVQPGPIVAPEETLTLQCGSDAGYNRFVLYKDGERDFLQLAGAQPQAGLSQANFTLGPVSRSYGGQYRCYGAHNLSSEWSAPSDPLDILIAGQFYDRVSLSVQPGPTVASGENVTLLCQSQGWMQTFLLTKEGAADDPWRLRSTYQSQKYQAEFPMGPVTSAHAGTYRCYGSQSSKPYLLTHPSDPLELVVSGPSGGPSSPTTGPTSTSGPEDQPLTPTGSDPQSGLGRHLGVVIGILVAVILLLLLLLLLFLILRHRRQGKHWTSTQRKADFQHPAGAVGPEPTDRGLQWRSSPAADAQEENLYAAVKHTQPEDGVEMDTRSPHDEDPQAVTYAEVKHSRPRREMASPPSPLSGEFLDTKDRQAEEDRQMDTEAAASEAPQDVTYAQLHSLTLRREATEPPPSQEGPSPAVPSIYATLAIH

Human ILT2-Fc = Human ILT2-Fc (human, UniProt Q8NHL6 24-461, limits assumed); assay: SPR (Biacore) competition: blocking of human ILT2-Fc binding to HLA-A, 25 C
Chain of Human ILT2-Fc (Q8NHL6 24-461 limits assumed): as the sequence (Q8NHL6 24-461) above
Experimental: (§3) In addition to the reporter cell system, the inhibitory activity of anti-ILT2/ILT4 antibodies towards the interaction between ILT2 and MHC I molecules, and the interaction between ILT4 and MHC I molecules was evaluated using the Biacore system. Human ILT2-Fc and ILT4-Fc were used as target receptors and their interaction with an exemplary MHC-I molecule (HLA-A) was assayed in the presence or absence of an exemplary anti-ILT2/ILT4 antibody Hz73D1.v1 at 25° C. Anti-human ILT2 (clone 27F9) or ILT4 (clone 48A5) antibodies were used as tool reagents to dissect ILT2- and ILT4-specific blocking activities. Anti-IL2/ILT4 antibodies produced a dose-dependent reduction in the interaction between ILT2 and HLA-A, as well as between ILT4 and HLA-A. IC50s of the antibodies tested are shown in Table 16.

[4] = biological target: T4, human ILT4 chimeric reporter receptor (ILT4 extracellular domain fused to PILRbeta … (human, UniProt Q8N423 22-460)); assay: reporter cell assay (not a direct binding assay): human ILT4 reporter cells co-cultured with Raji cells, %GFP+ by FACS
T4 construct: On the surface of NFAT-GFP reporter cells; associates with DAP12; also called ILT4 reporter cells; Human ILT4 reporter construct; not shown: The PILRbeta transmembrane/intracellular domain
T4 sequence (Q8N423 other isoform, or with tags, fused parts or gaps mutant limits assumed): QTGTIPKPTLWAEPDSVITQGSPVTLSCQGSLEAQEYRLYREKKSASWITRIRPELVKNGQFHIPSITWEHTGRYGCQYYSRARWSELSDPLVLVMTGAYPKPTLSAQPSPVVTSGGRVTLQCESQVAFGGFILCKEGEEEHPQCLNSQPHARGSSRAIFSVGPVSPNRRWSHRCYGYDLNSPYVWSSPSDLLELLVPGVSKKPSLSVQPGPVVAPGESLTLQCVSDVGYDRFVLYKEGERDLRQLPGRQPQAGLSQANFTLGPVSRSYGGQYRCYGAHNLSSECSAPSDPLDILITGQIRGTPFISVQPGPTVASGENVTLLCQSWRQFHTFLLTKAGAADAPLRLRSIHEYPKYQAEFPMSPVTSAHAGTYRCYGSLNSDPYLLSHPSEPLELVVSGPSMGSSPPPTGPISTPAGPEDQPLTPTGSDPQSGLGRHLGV
Experimental: (§4) The ability of anti-ILT2/ILT4 antibodies to inhibit the interaction between ILT2 and/or ILT4 and MHC I molecules was evaluated using a reporter cell system. […] In this chimeric receptor system, the extracellular domain of the receptor of interest (e.g., ILT2 or ILT4) is fused with the transmembrane/intracellular domain of PILRβ that associates with the adaptor protein DAP12. When the chimeric receptor (e.g., ILT2 or ILT-4) is activated by binding to a ligand (e.g., MHC I molecule), DAP12 becomes phosphorylated and activates an NFAT-responsive promoter which drives GFP expression (see, e.g., Deng et al., 2014, Blood, 124:924-935).
(§5) Reporter cells were washed after staining and resuspended at 1×10⁶ cells/ml in X-VIVO™ 15 media (Lonza). […] For assays with Raji cells: anti-ILT2 antibody 27F9, anti-ILT4 antibody 48A5, anti-ILT2/ILT4 antibody 73D1 and Hz73D1.v1, and a control antibody were serially diluted and 50 μl was added to each well of a 96-well flat-bottom cell culture plate. […] The plates were incubated overnight at 37° C. The next day, reporter cells were assayed for GFP expression by FACS.

human ILT4 on cells = biological target: T5, human ILT4 on cells (human, UniProt Q8N423 22-597); assay: flow cytometry, fluorescently labelled antibody on immune cell subsets of PBMC / red-cell-depleted whole blood
T5 construct: also called LILRB2; human ILT4 expressed on 293T cells
T5 sequence (Q8N423 other isoform, or with tags, fused parts or gaps): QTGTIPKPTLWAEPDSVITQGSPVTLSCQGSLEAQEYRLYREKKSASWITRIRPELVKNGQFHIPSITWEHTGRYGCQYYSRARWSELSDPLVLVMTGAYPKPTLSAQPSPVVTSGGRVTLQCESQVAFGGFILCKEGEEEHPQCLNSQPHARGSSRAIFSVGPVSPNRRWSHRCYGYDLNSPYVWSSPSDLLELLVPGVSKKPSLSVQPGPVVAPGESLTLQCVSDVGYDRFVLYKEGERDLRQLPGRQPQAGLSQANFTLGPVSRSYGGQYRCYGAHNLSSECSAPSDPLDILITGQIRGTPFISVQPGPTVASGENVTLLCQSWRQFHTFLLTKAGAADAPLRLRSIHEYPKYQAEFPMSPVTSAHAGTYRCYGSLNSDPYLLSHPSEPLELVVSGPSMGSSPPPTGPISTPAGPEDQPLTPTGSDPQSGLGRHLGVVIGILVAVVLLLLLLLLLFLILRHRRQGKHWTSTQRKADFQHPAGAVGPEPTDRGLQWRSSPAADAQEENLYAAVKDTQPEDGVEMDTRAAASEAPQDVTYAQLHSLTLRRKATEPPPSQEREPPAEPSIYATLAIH
Experimental: (§6) Flow cytometry analysis of blood immune cells was performed on human and cyno PBMC and whole blood. PBMC were prepared from a leukopak (Allcells Inc.) by centrifugation through ficoll, washing with PBS and freezing in cryopreservation buffer in liquid nitrogen until use. Whole blood (Allcells Inc.) was obtained fresh and red blood cells (RBC) depleted using ammonium chloride RBC lysing solution (Biolegend). PBMC or whole blood samples were stained with a fluorescently labeled antibody panel to distinguish various immune subsets (monocytes, B cells, NK cells, CD4+ and CD8+ T cells, neutrophils and eosinophils). Samples were further stained with fluorescently labeled isotype, 27F9 (ILT2 specific), 48A5 (ILT4 specific), 73D1, and Hz73D1.v1. The number of ILT2 and ILT4 molecules per cell of each immune subset was estimated by incubation with Quantum Simply Cellular microspheres followed by flow cytometry analysis.

soluble human ILT2-ECD [5] = biological target: T2, soluble human ILT2-ECD; assay: Biacore competition: antibody titrated against 20 nM ILT2-ECD, mixture injected over biotinylated HLA-A*1101 on a NeutrAvidin chip; blocked ligand HLA-A*1101
Experimental: as §1

Human ILT4-Fc = Human ILT4-Fc (human, UniProt Q8N423 22-460); assay: SPR (Biacore) competition: blocking of human ILT4-Fc binding to HLA-A, 25 C
Chain of Human ILT4-Fc (Q8N423 other isoform, or with tags, fused parts or gaps): as the sequence (Q8N423 other isoform, or with tags, fused parts or gaps mutant limits assumed) above
Experimental: as §3

soluble human ILT4-ECD [6] = biological target: T1, soluble human ILT4-ECD; assay: Biacore competition: antibody titrated against 20 nM ILT4-ECD, mixture injected over biotinylated HLA-A*1101 on a NeutrAvidin chip; blocked ligand HLA-A*1101
Experimental: as §1

soluble human ILT4-ECD [7] = biological target: T1, soluble human ILT4-ECD; assay: SPR (Biacore), antibody captured on Protein A chip, soluble ILT-ECD injected (1.6-200 nM), 25 C
Experimental: as §2

human ILT2 on cells [8] = biological target: T3, human ILT2 on cells; assay: flow cytometry, fluorescently labelled antibody on immune cell subsets of PBMC / red-cell-depleted whole blood
Experimental: as §6

[9] = biological target: T6, human ILT2 chimeric reporter receptor (ILT2 extracellular domain fused to PILRbeta … (human, UniProt Q8NHL6 24-461)); assay: reporter cell assay (not a direct binding assay): human ILT2 reporter cells co-cultured with Raji cells, %GFP+ by FACS
T6 construct: On the surface of NFAT-GFP reporter cells; associates with DAP12; also called ILT2 reporter cells; Human ILT2 reporter construct; not shown: The PILRbeta transmembrane/intracellular domain
T6 sequence (Q8NHL6 24-461 limits assumed, change not shown): as the sequence (Q8NHL6 24-461) above
Experimental: as §4, §5

soluble human ILT2-ECD [10] = biological target: T2, soluble human ILT2-ECD; assay: Biacore competition: antibody titrated against 20 nM ILT2-ECD, mixture injected over biotinylated HLA-A*1101 on a NeutrAvidin chip
Experimental: as §1

soluble human ILT2-ECD [11] = biological target: T2, soluble human ILT2-ECD; assay: SPR (Biacore), antibody captured on Protein A chip, soluble human ILT2-ECD injected, 25 C
Experimental: as §2

T1 sequence (Q8N423 other isoform, or with tags, fused parts or gaps): as the sequence (Q8N423 other isoform, or with tags, fused parts or gaps mutant limits assumed) above

Row | binding result (soluble human ILT4-ECD [1]) | Kd (soluble human ILT2-ECD [2]) | koff (soluble human ILT2-ECD [2]) | kon (soluble human ILT2-ECD [2]) | EC50, NKL cytolytic activity against 721.221-HLA-G target cells (human ILT2 on cells [3]) | IC50 (Human ILT2-Fc) | binding result (human ILT4 on cells) | IC50 (read off the curve) (soluble human ILT2-ECD [5]) | IC50 (Human ILT4-Fc) | IC50 (read off the curve) (soluble human ILT4-ECD [6]) | Kd (soluble human ILT4-ECD [7]) | koff (soluble human ILT4-ECD [7]) | kon (soluble human ILT4-ECD [7]) | binding result (human ILT2 on cells [8]) | binding result (soluble human ILT2-ECD [10]) | binding result (soluble human ILT2-ECD [11]) | Binder | binding result [4] | binding result [9]
1 | no binding (tested: about 200 nM) | 0.26 nM | 5.4e-05 s⁻¹ | 210000 M⁻¹ s⁻¹ | 0.064 nM | 8.9 nM | no binding (tested: not given) | ~9 nM |  |  |  |  |  |  |  |  | anti-ILT2 antibody 27F9 (antibody, V domains shown, Mouse hybridoma antibody; also called clone 27F9; anti-ILT2 (27F9)) VH: QVQLKESGPGLVAPSQSLSITCTVSGFSLTNYGVSWVRQPPGKGLEWLGIIWGDGSTNYHSALISRLSISKDNSKSQVFLKLNSLQADDTATYYCAKPNWDTYAMDFWGQGTSVTVSS VL: DIQMTQTTSSLSASLGDRVTISCRASQDISNFLNWYQQKPDGTVKLLIYCTSKLHSGVPSRFSGSGSETDYSLTISNLEQEDIATYFCQQGNTLPPTFGGGTKLEII | no binding (tested: Log nM about 1.5 (about 30 nM)) | 
2 |  |  |  |  |  |  | binds |  | 8.4 nM | ~20 nM | 0.026 nM | 2.1e-05 s⁻¹ | 810000 M⁻¹ s⁻¹ | no binding (tested: not given) | no binding (tested: about 200 nM) |  | anti-ILT4 antibody 48A5 (antibody, V domains shown, Mouse hybridoma antibody; also called clone 48A5; anti-ILT4 (48A5)) VH: QIQLVQSGPELKKPGETVKISCKASGYTFTNYGMNWVKQAPGKGLKWMGWINTYIGEPIYADDFKGRFAFSLETSASTAYLQINNLKNEDMATYFCARRSDYDGYAMDYWGQGTSVTVSS VL: DIVMSQSPSSLAVSVGERVTMSCKSSQSLLYSGNQKNYLAWYQQKPGQSPKLLIYWASTRESGVPDRFTGSGSGTDFTLTISSVKAEDLAVYYCQQHDSYPTFGGGSRLEIK |  | no binding (tested: Log nM about 1.5 (about 30 nM))
3 |  |  |  |  |  |  |  |  |  |  | 0.074 nM | 2.5e-05 s⁻¹ | 340000 M⁻¹ s⁻¹ |  |  | no binding (tested: 1.6-200 nM) | anti-ILT4 antibody 47C8 (antibody, V domains shown, Mouse hybridoma antibody) VH: EVQLQQSGPDLVKPGASVKISCKASGYSFTGYYMHWVKQSHGKSLEWIGRVYPNNGDTSYNQKFKVKAILTVDKSSSTAYMELRSLTSEDSAVYYCARGATVVESLFAYWGQGTLVTVSA VL: DIVLTQSPASLAVSLGQRATISCRASESVDNYGNNFLHWYQQKPGQPPKLLIYRTSNLESGIPARFSGSGSRTDFTLTINPVEADDVATYYCQQSNEDPYTFGGGTKLEIK |  | 
